According to patent US7087405 (dated 2006):
One block for each binder: values may come before it.

Key:
integrin alphavbeta3 [1] = target: T1, integrin alphavbeta3 (human, UniProt P06756); experiment: SPR, mAb captured on Protein A
T1 chain 1: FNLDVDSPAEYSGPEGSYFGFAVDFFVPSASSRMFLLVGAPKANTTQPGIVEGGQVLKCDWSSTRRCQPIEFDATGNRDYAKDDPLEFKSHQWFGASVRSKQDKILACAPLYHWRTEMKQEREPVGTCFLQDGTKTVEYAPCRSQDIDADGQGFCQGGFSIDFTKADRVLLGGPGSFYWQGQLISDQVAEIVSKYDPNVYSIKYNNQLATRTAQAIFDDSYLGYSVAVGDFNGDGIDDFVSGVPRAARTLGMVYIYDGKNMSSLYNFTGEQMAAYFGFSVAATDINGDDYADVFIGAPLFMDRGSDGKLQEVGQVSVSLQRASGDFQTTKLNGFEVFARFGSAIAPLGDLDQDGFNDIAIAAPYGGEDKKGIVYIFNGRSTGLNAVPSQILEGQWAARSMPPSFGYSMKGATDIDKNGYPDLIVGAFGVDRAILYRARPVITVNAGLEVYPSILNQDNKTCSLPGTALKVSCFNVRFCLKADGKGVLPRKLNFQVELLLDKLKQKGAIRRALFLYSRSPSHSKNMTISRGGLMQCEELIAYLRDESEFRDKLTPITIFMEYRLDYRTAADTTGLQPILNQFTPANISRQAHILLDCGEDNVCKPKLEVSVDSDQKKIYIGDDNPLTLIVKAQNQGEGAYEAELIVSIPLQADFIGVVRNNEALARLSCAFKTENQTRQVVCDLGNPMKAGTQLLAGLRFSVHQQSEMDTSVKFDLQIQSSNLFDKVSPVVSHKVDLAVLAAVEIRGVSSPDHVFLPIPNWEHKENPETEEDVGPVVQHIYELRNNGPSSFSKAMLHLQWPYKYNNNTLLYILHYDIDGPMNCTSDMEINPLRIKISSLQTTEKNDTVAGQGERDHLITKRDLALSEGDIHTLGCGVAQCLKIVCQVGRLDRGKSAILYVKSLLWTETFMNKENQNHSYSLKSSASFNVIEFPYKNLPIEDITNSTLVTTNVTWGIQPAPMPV
T1 chain 2: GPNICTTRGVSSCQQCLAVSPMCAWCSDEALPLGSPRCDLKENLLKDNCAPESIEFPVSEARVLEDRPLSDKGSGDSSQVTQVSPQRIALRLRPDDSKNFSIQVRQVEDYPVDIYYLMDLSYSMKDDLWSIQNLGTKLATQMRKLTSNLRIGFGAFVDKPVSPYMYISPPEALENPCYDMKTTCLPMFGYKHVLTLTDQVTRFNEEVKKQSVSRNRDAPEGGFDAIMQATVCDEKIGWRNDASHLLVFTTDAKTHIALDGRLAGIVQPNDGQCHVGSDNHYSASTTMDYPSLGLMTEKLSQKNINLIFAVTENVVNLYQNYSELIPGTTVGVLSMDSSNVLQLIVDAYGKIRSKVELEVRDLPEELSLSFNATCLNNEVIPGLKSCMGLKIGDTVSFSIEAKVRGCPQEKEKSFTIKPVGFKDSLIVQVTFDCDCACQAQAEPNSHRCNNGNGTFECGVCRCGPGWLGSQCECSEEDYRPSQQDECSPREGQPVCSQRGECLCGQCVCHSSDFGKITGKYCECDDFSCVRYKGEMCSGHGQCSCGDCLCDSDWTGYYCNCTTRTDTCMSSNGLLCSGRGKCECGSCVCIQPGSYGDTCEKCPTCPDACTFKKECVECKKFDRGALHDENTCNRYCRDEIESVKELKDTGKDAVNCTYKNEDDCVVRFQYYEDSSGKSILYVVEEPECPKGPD

integrin alphavbeta3 [2] = target: T1, integrin alphavbeta3; experiment: SPR, receptor immobilized, bivalent
integrin alphavbeta5 = target: T2, integrin alphavbeta5 (human, UniProt P06756); experiment: SPR, receptor immobilized, bivalent
T2 chain 1: T1 chain 1
T2 chain 2: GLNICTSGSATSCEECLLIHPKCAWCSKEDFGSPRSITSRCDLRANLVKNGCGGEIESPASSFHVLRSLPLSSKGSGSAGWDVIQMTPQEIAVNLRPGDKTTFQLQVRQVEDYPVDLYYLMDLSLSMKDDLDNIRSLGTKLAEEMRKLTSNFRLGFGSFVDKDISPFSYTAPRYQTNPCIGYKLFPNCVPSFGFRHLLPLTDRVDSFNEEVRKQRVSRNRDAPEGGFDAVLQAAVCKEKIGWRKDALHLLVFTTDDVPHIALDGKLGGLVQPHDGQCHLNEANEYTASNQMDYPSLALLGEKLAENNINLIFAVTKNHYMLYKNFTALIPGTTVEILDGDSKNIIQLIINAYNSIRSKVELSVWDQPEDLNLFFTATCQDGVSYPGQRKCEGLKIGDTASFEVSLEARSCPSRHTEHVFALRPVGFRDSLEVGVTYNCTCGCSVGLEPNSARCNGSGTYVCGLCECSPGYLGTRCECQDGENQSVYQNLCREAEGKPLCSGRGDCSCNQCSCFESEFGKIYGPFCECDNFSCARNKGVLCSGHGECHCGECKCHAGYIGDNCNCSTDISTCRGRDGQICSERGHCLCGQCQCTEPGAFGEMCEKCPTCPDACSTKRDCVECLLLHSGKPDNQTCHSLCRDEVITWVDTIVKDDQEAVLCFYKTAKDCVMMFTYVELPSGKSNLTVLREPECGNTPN

B1: B9HL1G1 (antibody)
chain 1: QVQLVQSGAEVKKPGASVKVSCKASGYTFSSYWIEWVKQAPGQGLEWIGEILPRSGNTNYNEKFKGKATFTADTSTSTAYMELSSLRSEDTAVYYCSSRGVRGSMDYWGQGTLVTVSS
chain 2: DIQMTQSPSSLSASVGDRVTITCRSSQDISNFLNWYQQKPGKAPKLLIYYTSTLHSGVPSRFSGSGSGTDYTLTISSLQPEDFATYYCQQGNTASLDVRWRY
Kd (integrin alphavbeta3 [1]): 8.2 nM

B3: B9HL2G1 (antibody, V domains shown)
VH: B1 chain 1
VL: DIQMTQSPSSLSASVGDRVTITCRSSQDISNFLNWYQQKPGKAPKLLIYYTSTLHSGVPSRFSGSGSGTDYTFTISSLQPEDIATYYCQQGNTLPWTFGGGT
Kd (integrin alphavbeta3 [1]): 7.1 nM

B5: murine B9 (antibody, V domains shown)
VH: QVQLQQSGAELMKPGASVKISCKATGYTFSSYWIEWVKQRPGHGLEWIGEILPRSGNTNYNEKFKGKATFTAETSSNTAYMQLSSLTPEDSAVYYCSSRGVRGSMDYWGQGTSVTVSS
VL: DIQMTQTTSSLSASLGDRVTITCRSSQDISNFLNWYQQKPDGTVKLLIYYTSTLHSGVPSRFSGSGSGTDYSLTISNLEQEDIATYFCQQGNTLPWTFGGGTNLEIKR
Kd (integrin alphavbeta3 [2]): 0.29 nM
Kd (integrin alphavbeta5): 0.11 nM

Continued by falling Kd (integrin alphavbeta3 [1]), values first:

Kd (integrin alphavbeta3 [1]): 6.9 nM
B2: B9HH1G1/HL3K (antibody, V domains shown)
VH: B1 chain 1
VL: DIQMTQSPSSLSASVGDRVTITCRSSQDISNFLNWYQQKPGKAPKLLIYYTSTLHSGVPSRFSGSGSGTDYTLTISSLQPEDFATYYCQQGNTLPWTFGGGTNVE

Kd (integrin alphavbeta3 [1]): 5.4 nM
B4: B9HL1G4 (antibody)
chain 1: B1 chain 1
chain 2: B1 chain 2
